B1: MU1103 (VHH)
VHH: DVQLQASGGGLVQAGGSLRLSCAASEFTFDDYVIGWFRQAPGKEREGVSSISSDGSTYYADSVKGRFTISSDNAKNTVYLHMNSLKPEDTAVYYCAADVTLNPFTGWTTRSGPMYRYEYDYWGQGTQVTVSS
notes: His6-Myc-tagged monovalent VHH; also called s-24.1c; family 22
B2: MU727 (VHH)
VHH: DVQLQASGGGLVQAGGSLRLSCAGSGRTFSSYAMGWFRQAPGKEREFVASISWSGSRTNYGVPVKGRFTISRDNAKNTVYLQMSSLKPEDTAVYYCAADRFAVAIGTHDLDYWGQGTQVTVSS
notes: His6-Myc-tagged monovalent VHH; also called s-14.1d; family 9
B3: Jk24 (VHH)
VHH: QVQLQESGGGLVQPGGSLRLSCAASGIILRIYDMGWYRQAPGKQRELVAEITSGGSTNYADSVKGRFTISRDNAENTVSLQMNSLKPGDTAVYYCNAHHTFAGAYWGQGTQVTVSS
notes: His6-Myc-tagged monovalent VHH; also called I-8.2c; family 2
B4: Jk30 (VHH)
VHH: QVQLQESGGGLVQPGGSLRLSCAASGIILRIYDMGWYRQAPGKQRELVAAITSGGRTNYADSVKGRFTISRDNAENTVSLQMNSLKSGDTAVYYCNADHTFAGVYWGQGTQVTVSS
notes: His6-Myc-tagged monovalent VHH; also called I-8.2b; family 2
B5: Jk31 (VHH)
VHH: QVQLQESGGGLVQPGGSLRLSCAASGIILRLYDMGWYRQTPGKQRELVAEITSGGSTNYADSVKGRFTISRDNAENTVSLQMNSLKSGDTAVYYCNADHTFAGVYWGQGTQVTVSS
notes: His6-Myc-tagged monovalent VHH; also called I-8.2d; family 2
B6: Jk32 (VHH)
VHH: QVQLQESGGGLVQPGGSLRLSCAASGSTLRLYDMGWYRQADGKQRELVAEITSGGSTNYANSVKGRFTISRDNAENTVSLQMNSLKPEDTAVYYCNAEHTFMGAYWGQGTQVTVSS
notes: His6-Myc-tagged monovalent VHH; also called I-8.2e; family 2
B7: JK12 (VHH)
VHH: QVQLQESGGGLVQPGGSLRLSCVASERIFSRNTMGWYRQAPGKQRELVARIASLGITNYADSVKGRFTISSDNAKNTVYLQMNNLKPEDTAVYYCNYWHYAAGRDYWGQGTQVTVSS
notes: His6-Myc-tagged monovalent VHH; also called I-9.1a; family 4
B8: Jk14 (VHH)
VHH: EVQLVESGGGLVQAGGSLRLSCVASERIFSRNTMGWYRQAPGKQRELVARIASLGITNYADSVKGRFTISSDNAKNTVYLQMNNLKPEDTAVYYCNYWHYAAGRDYWGQGTQVTVSS
notes: His6-Myc-tagged monovalent VHH; also called I-9.1b; family 4
B9: Jk42 (VHH)
VHH: QVKLQESGGGLVQPGGSLRLSCVASERIFSRNTMGWYRQAPGKQRELVAYITSLGIANYADSVKGRFTISSDNAKNTVYLQMNNLKSEDTAVYNCNYWHYAAGRDYWGQGTQVTVSS
notes: His6-Myc-tagged monovalent VHH; also called I-9.1d; family 4
B10: Jk25 (VHH)
VHH: QVKLQESGGGLVQPGGSLRLSCVASGSISSIITMGWYRQAPGKQREFVARVIIGGSTGYADSVKGRFTISRDNTKNTVYLEMNSLKPEDTAVYYCNAGNPGTSYHYWGQGTQVTVSS
notes: His6-Myc-tagged monovalent VHH; also called I-9.3a; family 6
B11: Jk46 (VHH)
VHH: QVQLQESGGGLVQAGGSLRLSCAASGRTFSSVAMGWFRQAPGKEREFVATINWSGGRTTYADSVKGRFTISRDSAKNTVYLQMNSLKPEDTAVYYCAADRFSVVAVEYDYWGQGTQVTVSS
notes: His6-Myc-tagged monovalent VHH; also called family 7
B12: Jk20 (VHH)
VHH: QVQLQESGGGLVQAGGSLRLSCAISGRTFIADMGWFRQAPGKEREFQAGITWFGGSTYYADSVKGRFTISRDNTKNTLYLQMNSLKPEDTAIYYCAAGLKRIGDQREADYWGQGTQVTVSS
notes: His6-Myc-tagged monovalent VHH; also called I-13.1a; family 8
B13: Jk26 (VHH)
VHH: QVQLQESGGGLVQAGGSVRLSCAISGRTFINDMGWFRQAPGKEREFQAGITWFGGSTYYADSVKGRFTISRDNTKNTLYLQMNSLKPEDTAIYYCAAGLKRIGDQREADYWGQGTQVTVSS
notes: His6-Myc-tagged monovalent VHH; also called I-13.1b; family 8
B14: Jk27 (VHH)
VHH: EVQLVESGGGLVQAGGSLRLSCAISGRTFIADMGWFRQAPGKEREFQAGITWFGGSTYYADSVKGRFTISRDNTKNTLYLQMNSLKPEDTAIYYCAAGLKRIGDQREADYWGQGTQVTVAS
notes: His6-Myc-tagged monovalent VHH; also called s-13.1a; family 8
B15: Jk34 (VHH)
VHH: QVQLQESGGRLVQPGGSLRLSCAASGRTFSNYAMAWFRQGPGKEREFVAAISAADSTLYADFVKGRFTISRDNAKNTVYLQMNSLKPEDTAVYYCAARWWIAVRAPAEYNYWGQGTQVTVSS
notes: His6-Myc-tagged monovalent VHH; also called I-14.2c; family 11
B16: Jk35 (VHH)
VHH: QVKLQESGGRLVQPGGSLRLSCAASGRTFSNYAMAWFRQGPGKEREFVAAISAADSTLYADFVKGRFTISRDNAKNTVYLQMNSLKPEDTAVYYCAARWWIAVRAPAEYNYWGQGTQVTVSS
notes: His6-Myc-tagged monovalent VHH; also called I-14.2d; family 11
B17: MU413 (VHH)
VHH: DVQLQASGGGLVQTGDSLTVSCAASGLSFTRYTMGWYREVPGKERREFVAAVKPAGDSAYYGASVKGRFTASRDNAKNTVTLQMNSLKPEDTAIYYCAAGFPVLTALHIADPDYWGQGTQVTVSP
notes: His6-Myc-tagged monovalent VHH; also called I-15.2b; family 13
B18: WF129 (VHH)
VHH: DVQLQASGGGLVQAGGSLRLSCEFSGRTFSGFAMGWFRQFPGKEREFVAAINWSGSSVDYSDSVKGRFTISRDNVKSTMYLVMNSLKPEDTAVYYCAEARSAELGSSRKIQGYDQWGRGTQVTVSS
notes: His6-Myc-tagged monovalent VHH; also called I-17.1b; family 18
B19: WF141 (VHH)
VHH: DVQLQASGGGLVQAGGSLRLSCEFSGRTFSGFAMGWFRQFPGKEREFVAAINWSGSSVDYSDSVKGRFTISRDNVKSTMYLVMNSLKPEDTAVYYCAEARSAELGSSRKIQGYDQWGRGTRVTVSS
notes: His6-Myc-tagged monovalent VHH; also called I-17.1c; family 18
B20: MU1065 (VHH)
VHH: DVQLQESGGGLVQAGDSLRLSCAASGPHFNNYAIGWFRQAPGKEREFVAGISWSSGSLLYSDSVKGRFTISRDNDKNTAYLQMNSLKPEDTALYYCAAQYQERYYSDFSLKEKGMEYWGKGTLVTVSS
notes: His6-Myc-tagged monovalent VHH; also called I-19.1b; family 19
B21: MU397 (VHH)
VHH: DVQLQASGGGLVQAGGSLRLSCAPSGGTFDAYDMGWYREAPGKKRQFVAAVRSGGGTTRYADSVKGRFTISRDDAKDTVFLQMNSLKPEDTALYYCAADRWGLFSLSIATPTHWGQGTQVTVSS
notes: His6-Myc-tagged monovalent VHH; also called L-15.1a; I-15.1a
B22: MU1068 (VHH)
VHH: DVQLQASGGGSVQEGESLKLSCVGSGRTFSDWAMGWYRQAPGKDREFVAAVSGAGRGGKPSYANSVKGRFTVSRDNAKNTVYLQMDNLKPEDTAVYYCAADRLVLVALSIADPGFWGQGTRVTVSS
notes: also called L-15.1b; I-15.1b
B23: MU274 (VHH)
VHH: DVQLQESGGGLVQAGGSLRLSCAASGVSFSRYTMGWYREVPGKERREFVAAVRPSGDSTYYGNSVKGRFSISRDDDKNIVYLQMNSLKPEDTAVYYCAAGFPVLVALSIADPDYWGQGTQVTVST
notes: also called L-15.2a; I-15.2a
B24: MU523 (VHH)
VHH: DVQLQESGGGLVQAGSSLRISCAVSGVRLDNYAMGWFRQAPGKERESVAGISWSSGTLLYSDSVKGRFAISRDNAKNTVYLQMNSLKPEDTAVYYCAAQYQDRYYDEFTWKEKDMDYWGKGTLVTVSS
notes: His6-Myc-tagged monovalent VHH; also called L-19.1a; I-19.1a
B25: MU415 (VHH)
VHH: VQLQASGGGLVQAGGSLRLSCTVSGFTSDDYTVGWFRQAPGLKREGLSCLSRRDGRFYHSNSVKGRFTMSSDDNKNTVYLQLDSLKPDDTAVYYCAATTSVVVLLAPNWYEYWGQGTQVTVSS
notes: also called L+15; I+15b
B26: MU370 (VHH)
VHH: DVQLQASGGGSVQAGGSLTLSCRYSGGFVFRVSSMGWYRQAPGNQRELIATITVGGKTNYKDSVQGRFIISRNDTTVTLQMNRLQPEDTAVYYCNLASTAVGADTWGQGTRVTVSS
notes: also called I-9.2a
B27: MU1105 (VHH)
VHH: DVQLQASGGGLVQAGGSLRLSCAASGFTFDDYVIGWFRQAPGKEREGVSSISSSGSIYYADSVKGRFTISSDNAKNTVYLQMNSLKPEDTAVYFCAADVTLNPFTGWDTRSGPMYRYEYDYWGQGTQVTVSS
notes: His6-Myc-tagged monovalent VHH; also called I-24a; I-24.1a
B28: WF32 (VHH)
VHH: QVQLQESGGGLVQAGGSLRLSCAASGIILRIYDMGWYRQAPGKQRELVAAITSGGSTNYADSVKGRFTISRDNAKSMVYLQMNSLKPEDTAVYYCNAWHVFRGNYWGQGTQVTVSS
notes: His6-Myc-tagged monovalent VHH; also called I-8.2f; family 2
B29: WF140 (VHH)
VHH: DVQLQASGGGSVQAGGSLRLSCAASGLSFSDYAMGWFRQEPGKERRFVASIRSSGGTTYAESVKGRFTISRDNAKNTMYLQMNNLKPEDTAVYYCAADRLVITKLSIADPGYWGQGTQVTVSS
notes: also called s-15a; s-15.1a
B30: WF139 (VHH)
VHH: SGGGLVQAGGSQRLSCAASGHTFSSYSMAWFRQAPGKEREFVAANIMSGTNTYYADSVRGRFTMSRDIAKNTVYLQMNSLKEEDTALYYCAAADRFRGWATWRDDPDQYDYWDQGTQVTVSS
notes: His6-Myc-tagged monovalent VHH; also called s-19b; s-19.1b
B31: WF114 (VHH)
VHH: VQLQESGGGLVQAGGSLRLSCAASGFTFDDYVIGWFRQAPGKECEGVSSISNNNSTYYADSVKGRFTIASDNAKNTVYLQMNSLKPEDTAVYYCAADVTLNPFTGWNTRSGPMYRYEYDYWGQGTQVTVSS
notes: His6-Myc-tagged monovalent VHH; also called s+/-24b; s-24.1b

target: T1, human CD38 on cells (human, UniProt P28907 1-300); assay: binding assays of Example 4
T1 construct: also called native CD38; CD38 on LP-1 myeloma cells, CD38-transfected NIH-3T3 cells, blood leukocytes, CD38-transfected DC27.10 cells

Binder	binding result
B1	binds
B2	binds
B3	binds
B4	binds
B5	binds
B6	binds
B7	binds
B8	binds
B9	binds
B10	binds
B11	binds
B12	binds
B13	binds
B14	binds
B15	binds
B16	binds
B17	binds
B18	binds
B19	binds
B20	binds

target: T2, soluble, non-glycosylated, recombinant human CD38 (human, UniProt P28907 43-300, Alexa 647 conjugate); assay: micro-scale thermophoresis, n = 2
T2 construct: also called recombinant human non-glycosylated extracellular domain of CD38

Binder	Kd [nM]
B21	1
B22	1.38
B23	3
B24	3
B25	23
B26	225

target: T3, human CD38 protein immobilised on AR2G biosensor (human, UniProt P28907 43-300, limits assumed); assay: Octet BLI, immobilised CD38
T3 construct: Construct used on the Octet is not described; also called immobilised human CD38

Binder	koff [s⁻¹]
B27	< 0.0003
B28	0.00026
B29	0.00054
B30	< 0.00022
B31	< 0.00014

— US20190276551A1 (UNIVERSITY MEDICAL CENTER HAMBURG EPPENDORF, published 2019)
